The results in this text go back to article PMC2581427.

Series [1] deals with T1, GST-Arx (286-430) (UniProt O35085 286-430). As to the kind of experiment: EMSA. On the technique in general: In EMSA bound probe runs differently from free probe, usually more slowly.
The target in series [2] is T1, GST-Arx (286-430). The series can be described thus: EMSA. The source holds these as a separate data set.
The target of series [3] is T1, GST-Arx (286-430). The series can be described thus: competition.

T1 sequence (O35085 286-430): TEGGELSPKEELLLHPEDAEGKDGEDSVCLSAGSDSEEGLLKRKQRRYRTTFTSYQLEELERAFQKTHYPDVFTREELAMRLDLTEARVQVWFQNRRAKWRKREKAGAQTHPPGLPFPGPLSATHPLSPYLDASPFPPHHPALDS

B1: Ebf3 probe (dsDNA)
DNA 1: GCGATTTTCCCGATTAATTAAAATATTAACGCA
DNA 2: GTGCGTTAATATTTTAATTAATCGGGAAAATCG
Take B1: the binding result in the series with GST-Arx (286-430) [1] is recorded as “binds”.

B2: Lmo1 probe (dsDNA)
DNA 1: GTAATGAATTGATTTAATTAACAGGGGAGTCTGA
DNA 2: GTCAGACTCCCCTGTTAATTAAATCAATTCATTA
For B2, in the series with GST-Arx (286-430) [2], the binding result is “binds”.

B3: Lmo1mut2 (dsDNA)
DNA 1: GTAATGAACCGATTTAATTAACAGGGGAGTCTGA
DNA 2: GTCAGACTCCCCTGTTAATTAAATCGGTTCATTA
As for B3, in the series with GST-Arx (286-430) [3], the binding result is on record as “binds”.

B4: Lmo1mut1 (dsDNA)
DNA 1: GTAATGAATTGATTTCCTTAACAGGGGAGTCTGA
DNA 2: GTCAGACTCCCCTGTTAAGGAAATCAATTCATTA
As for B4, the binding result in the series with GST-Arx (286-430) [3] is recorded as “no binding”.

B5: Shox2 probe (dsDNA)
DNA 1: GCAAAATCCACGCTTAATTAAATTAATTAGGGA
DNA 2: GTCCCTAATTAATTTAATTAAGCGTGGATTTTG
For B5, the binding result with GST-Arx (286-430) [2] is reported as “binds”.
